The values that follow come from IntAct's records for PubMed 16996049.

For this assay, the target named is par6_caeel par-6 (UniProt Q9NAN2).
par6_caeel par-6, sequence (Q9NAN2 whole entry): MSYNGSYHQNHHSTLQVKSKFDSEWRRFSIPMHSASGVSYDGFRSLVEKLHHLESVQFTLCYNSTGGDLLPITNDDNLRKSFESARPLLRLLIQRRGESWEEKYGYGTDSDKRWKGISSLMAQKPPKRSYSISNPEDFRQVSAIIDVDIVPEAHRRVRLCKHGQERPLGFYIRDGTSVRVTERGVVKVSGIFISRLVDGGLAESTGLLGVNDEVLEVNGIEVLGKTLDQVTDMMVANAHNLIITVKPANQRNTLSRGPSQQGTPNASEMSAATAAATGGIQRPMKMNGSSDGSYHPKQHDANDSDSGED

Cell division control protein 42 homolog (Caenorhabditis elegans), Q05062 T17N, sequence (Q05062 whole entry T17N): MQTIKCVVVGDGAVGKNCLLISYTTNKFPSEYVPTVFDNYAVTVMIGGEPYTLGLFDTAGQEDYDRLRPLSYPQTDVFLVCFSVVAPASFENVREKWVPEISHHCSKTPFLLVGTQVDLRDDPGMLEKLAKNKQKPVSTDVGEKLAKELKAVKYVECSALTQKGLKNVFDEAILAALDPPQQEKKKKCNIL

As to “Cell division control protein 42 homolog (Caenorhabditis elegans), Q05062 T17N”, the “effect of a mutation on the interaction” value was “disrupting interaction”.
